Consider three proteins from doi:10.1101/479162v2.

Holding throughout (details): KSI (substrate inhibition) also fitted
Substrate in data set [1]: O=[N+]([O-])c1ccc(OS(=O)(=O)O)cc1
The data set can be described thus: purified protein.

Substrate in data set [2]: O=C1OC2(c3ccc(OS(=O)(=O)O)cc3Oc3cc(OS(=O)(=O)O)ccc32)c2ccccc21
The data set can be described thus: fluorescence, Michaelis-Menten kinetics of purified enzyme. It is filed as biochemical, Ruegeria pomeroyi.

Substrate in data set [3]: O=C1OC2(c3ccc(OS(=O)(=O)O)cc3Oc3cc(OS(=O)(=O)O)ccc32)c2ccccc21
The data set can be described thus: purified protein.

B1: SpAS1 (arylsulfatase 1 from Silicibacter pomeroyi DSS-3), purified (Ruegeria pomeroyi DSS-3) (protein)
chain: MTQNRNILWIMCDQLRFDYLSCYGHERLNTPNIDKLAKRGVRFTNAYVQATVCGPSRMSAYTGRYVRSHGSTQNGIPLRVGEPTLGDHLRDVGMRNVLIGKTHMRPDLDGMKRLGIDPDSEIGARVGEGGFDAFDRDDGVHPTGYRKKEPAYNDYLRHAGFQAENPWEFWANSAEGKGGENQSGWLLTHADKPARVPEEHSETAYMTRRAMEFMEAAEKDGRPWCAHLSYIKPHWPYIVPAPYHDMFGPDDVKPAVRSDEELKAAHPLFKAMTEEVYSRNFARDEVREKVIPAYMGLIKQIDDQLGQLFAFMQERGLDENTMIVFTADHGDYLGDHWMGEKYLFYEAAAKVPLIIYDPSDKADATRGTVSDALVEMIDLAPTFVDYAGGVPPMHILEGKSLLPLLHDDDSSWDRQYVFSELDYSNLPARLKLGRDIQDCRATMVFDGRYKLVEVMGFAPILFDLEVDPDELKDLGRDPSAEEVRQRLTSALDAWHRNTRQRITKSDAAYRALDPVLRESDPDLMAGVIIGYWDEDEVEAEKRRIARILGENS
As usually defined, the Km is the substrate concentration at which the rate is half of its maximum. In general, kcat refers to the number of substrate molecules converted per active site and unit of time at saturation. Regarding B1, the Km in the data set “purified protein [1]” is 7.1 ± 1.7 mM; in data set [2], 4.5 ± 0.5 mM. Also, the kcat is 34 ± 5 s⁻¹ in the data set “purified protein [1]” and 0.116 ± 0.004 s⁻¹ in data set [2].

B2: SpAS1 (arylsulfatase 1 from Silicibacter pomeroyi DSS-3), purified (Ruegeria pomeroyi DSS-3; K147E/M111T) (protein)
chain: MTQNRNILWIMCDQLRFDYLSCYGHERLNTPNIDKLAKRGVRFTNAYVQATVCGPSRMSAYTGRYVRSHGSTQNGIPLRVGEPTLGDHLRDVGMRNVLIGKTHMRPDLDGTKRLGIDPDSEIGARVGEGGFDAFDRDDGVHPTGYREKEPAYNDYLRHAGFQAENPWEFWANSAEGKGGENQSGWLLTHADKPARVPEEHSETAYMTRRAMEFMEAAEKDGRPWCAHLSYIKPHWPYIVPAPYHDMFGPDDVKPAVRSDEELKAAHPLFKAMTEEVYSRNFARDEVREKVIPAYMGLIKQIDDQLGQLFAFMQERGLDENTMIVFTADHGDYLGDHWMGEKYLFYEAAAKVPLIIYDPSDKADATRGTVSDALVEMIDLAPTFVDYAGGVPPMHILEGKSLLPLLHDDDSSWDRQYVFSELDYSNLPARLKLGRDIQDCRATMVFDGRYKLVEVMGFAPILFDLEVDPDELKDLGRDPSAEEVRQRLTSALDAWHRNTRQRITKSDAAYRALDPVLRESDPDLMAGVIIGYWDEDEVEAEKRRIARILGENS
In the case of B2, in “purified protein [1]”, the Michaelis constant (Km) is listed as 3.4 ± 0.3 mM and the catalytic constant (kcat) was determined as 100 ± 4 s⁻¹. Besides, in “purified protein [3]”, the Michaelis-Menten constant (Km) turned out to be 2.4 ± 0.2 mM and the catalytic constant (kcat) turned out to be 0.074 ± 0.002 s⁻¹.

B3: SpAS1 (arylsulfatase 1 from Silicibacter pomeroyi DSS-3), purified (Ruegeria pomeroyi DSS-3; R429Q) (protein)
chain: MTQNRNILWIMCDQLRFDYLSCYGHERLNTPNIDKLAKRGVRFTNAYVQATVCGPSRMSAYTGRYVRSHGSTQNGIPLRVGEPTLGDHLRDVGMRNVLIGKTHMRPDLDGMKRLGIDPDSEIGARVGEGGFDAFDRDDGVHPTGYRKKEPAYNDYLRHAGFQAENPWEFWANSAEGKGGENQSGWLLTHADKPARVPEEHSETAYMTRRAMEFMEAAEKDGRPWCAHLSYIKPHWPYIVPAPYHDMFGPDDVKPAVRSDEELKAAHPLFKAMTEEVYSRNFARDEVREKVIPAYMGLIKQIDDQLGQLFAFMQERGLDENTMIVFTADHGDYLGDHWMGEKYLFYEAAAKVPLIIYDPSDKADATRGTVSDALVEMIDLAPTFVDYAGGVPPMHILEGKSLLPLLHDDDSSWDRQYVFSELDYSNLPAQLKLGRDIQDCRATMVFDGRYKLVEVMGFAPILFDLEVDPDELKDLGRDPSAEEVRQRLTSALDAWHRNTRQRITKSDAAYRALDPVLRESDPDLMAGVIIGYWDEDEVEAEKRRIARILGENS
Take B3: the Michaelis constant (Km) in the data set “purified protein [1]” is on record as 7.3 ± 1.5 mM; in data set [2] it was 1.0 ± 0.1 mM. The kcat in “purified protein [1]” is 26 ± 3 s⁻¹; in data set [2], 0.77 ± 0.04 s⁻¹.
